{
  "source": "patent US20190194660A1",
  "about": "(UNIVERSITY OF SHEFFIELD, published 2019)",
  "binders": {"B1": {"name": "FLAG-tagged SRSF1 11-196 quadruple mutant (SRSF1-m4) (other)", "chain": "AGNNDCRIYVGNLPPDIRTKDIEDVFYKYGAIRDIDLKNRRGGPPFAFVEFEDPRDAEDAVYGRDGYDYDGYRLRVEFPASGAGTGRGGGGGGGGGAPRGRYGPPSAASENRVVVSGLPPSGSWQDLKDHMREAGDVCYADVYRDGTGVVEFVRKEDMTYAVRKLDNTKFRSHEGETAYIRVKVDG", "notes": "also called p3xFLAG/SRSF1 (11-196)-m4; dominant negative mutant SRSF1-m4; not shown: FLAG tag from the p3xFLAG vector (Sigma)"}},
  "biological_target": "T1, endogenous NXF1 in mouse neuronal N2A cells (mouse (endogenous in mouse neuronal N2A …, UniProt Q99JX7 2-618))",
  "T1 construct": "Detected with anti-NXF1 clone 53H8 after anti-FLAG immunoprecipitation; also called TAP/NXF1; nuclear export factor 1",
  "T1 sequence (looked up)": "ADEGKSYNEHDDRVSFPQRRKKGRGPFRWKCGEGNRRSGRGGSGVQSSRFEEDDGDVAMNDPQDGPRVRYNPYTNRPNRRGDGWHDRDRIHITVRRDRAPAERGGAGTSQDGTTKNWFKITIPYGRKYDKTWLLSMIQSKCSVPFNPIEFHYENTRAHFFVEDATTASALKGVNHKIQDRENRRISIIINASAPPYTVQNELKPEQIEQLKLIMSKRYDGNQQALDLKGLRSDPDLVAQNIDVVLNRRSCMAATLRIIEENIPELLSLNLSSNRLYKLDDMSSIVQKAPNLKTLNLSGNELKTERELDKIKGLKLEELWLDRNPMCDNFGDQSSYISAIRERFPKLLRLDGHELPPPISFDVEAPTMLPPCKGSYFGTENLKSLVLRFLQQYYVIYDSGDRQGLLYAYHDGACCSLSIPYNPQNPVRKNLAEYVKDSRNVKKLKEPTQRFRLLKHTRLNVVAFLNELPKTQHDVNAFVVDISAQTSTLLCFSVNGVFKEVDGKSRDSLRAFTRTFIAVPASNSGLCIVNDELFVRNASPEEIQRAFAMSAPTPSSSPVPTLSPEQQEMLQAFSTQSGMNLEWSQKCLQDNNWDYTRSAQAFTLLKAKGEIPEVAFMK",
  "experiment": "anti-FLAG co-immunoprecipitation of endogenous NXF1 from transfected N2A cells (FIG. 6)",
  "data": [
    {"binder": "B1", "values": [
      {"measurement": "binding result", "value": "no binding"}
    ]}
  ]
}
